# Results as given in the nanobody polyreactivity screen of Harvey et al. (2022).
# Test: yeast display, Sf9 membrane polyspecificity reagent, FACS + sequencing; frameworks hold sequencing errors
# Method in brief: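 Using colony PCR, genes from sorted yeast display clones were amplified, then sequenced on MiSeq at 2 × 250 and filtered by CDR length. The clones had been stained with 10% biotinylated, detergent-solubilized Sf9 membrane reagent for 1 hour at 4 °C and sorted by FACS into low and high (top ~1%) gates on anti-HA and streptavidin fluorescence. Polyreactivity labels come from the gate of origin.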
row,Sequence,polyreactivity (PSR sort gate)
1,QLQLEESCGGLVQAGGSLRLSCAATGFIFGKYAMGWYRQAPGKQREFVAAITRSGGSTYYADSVKGRVTISRDNAKNTVFLQMFCLKPEDTAVYYCNARISERGWRYYYWGHGTQVTVSS,high polyreactivity
2,QVQLVESGGGLVQAGGSLRLSCAASGRIFKRNTMGWYRQAPGKEMELVAAITYSGITYYADSVKGRFTISRDNAKNTVYLQMNSLKPEDTAVYYCAKVLYPIGSPRFEFWGQGTQVTVSS,low polyreactivity
3,QVQLVESGGGLVQAGGSLRLSCAASGRIFIRNDMGWYRQAPGKERELVAVITRSGGRTYYADSVKGRFTISRDNAKNTVYLQMHSLKPEDTAVYSCAKRQAFKQAPYEYWGQGTQVTVSS,low polyreactivity
4,QVQLVESGGGLVQAGGSLRLSCAASGRTFNGDAMGWYRQAPGKERELVAAISSSGGSTYYADSVKGRFTISRDNAKNTVYLQMNSLKPEDTAVYYCAARRANGFNYWGHGTQVTVSS,high polyreactivity
5,QVQLVESGGGLVQAGGSLRLSCAASGSTFSRYAMGWDRQAPGKEMELVAAISSSGGGTYYADSVKGRFTISRDNAKNTVYLQMNSLKPEDTAVSYCAAKRVHGATGYWGQGTQVTVSS,high polyreactivity
6,QVQLVESGGGLVQAGGSLRISCAASGFTFGVYAMGWYRPAPGKEREFVASISFSGGRTYYSDSVKGRFTISRDNAKNTVYLQMNSLKPEDTAVYYCAKRWSADDYWGQGTQVTVSS,high polyreactivity
7,QVQLVESGGGLVQAGGSLRLSCAASGRIFPAYAMGWYRQAPGKERELVASIRRGGITYADSVKGRFTISRDNAKNTVYLQMNSLKPEDTAVYYCARPQWRDWYGYWGQGTQVTVSS,low polyreactivity
8,QVQLVESGGGLVQAGGSLRLSCAASGSIIPRNVMGWYRQAPGNERELVAAISRSGGSTSYADSVKGRFTISRDNAKNTVYLQMNSLKPEDTAVYYCKAPWQRYSAPWGQGYNYWGQGTQVTVSS,high polyreactivity
9,QVQLVESGGGLVQAGGSLSLSCAASGRTFWLNSMGWYRQAPGKERELVATISSSSGSTTYADSVKGRFTISRDNAKNTVYLQMNSLKPEDTAVYYCAADWSDDVPGYDYWGQGTQVTVSS,low polyreactivity
10,QVQLVESGGGIVQAGGSLRLSCADSGRTFGYYGMGWYRQAPGKERELVASINFSSGSTFYADSVKGRFTISRDNAKNTVYLQMNSLKPEDTAVYYCAGRAKAVRTYAYNYWGQGTQVTVSS,low polyreactivity
11,QDQLVESGGGLVQAGGSLRLSCAASGSIFPNYAMGWYRQAPGKERELVAAISSSGGRTYYADSVKGRFTISRDNAKNTVYLQMNSLKPEDTAVYYCAADTYTSAQHEKYDYWGQGTQVTVSS,low polyreactivity
12,QVQLVDSGGGLVQAGGSLRLSCAASGFTFYLYTMGWYRPAPGKERQLVATITSDGGTNYADSVKGRFTISRDNAKNTVYLQMNSLKPEDTAVYYCNAASRRGSRKQAKYDYWGQGTQVTVSS,low polyreactivity
13,QVQLVESGGGLVQAGGSLRLSCAASGRIFHRYAMGWYRQAPGKERELVASISRGDSTNYADSVKGRFTISRDNAKNTVYLQMNSLKPEDTAVYYCAAVPRRSGHQRWGATYYYWGQGTQVTVSS,high polyreactivity
14,QVQLVESGGGLVQAGGSLRLSCAASGRIFVNNAMGWSRQAPGKERELVAAISKRGGSTYYADSVKGRFTISRDNAKNSVYLQMNSLKPEDTAVYYCAATPVYSGPYDYWGQGTQVTVSS,high polyreactivity
15,QVQLVESGGGLVQAGGSLRLSCAASGSIFEVYAMGWYRQAPGKERELVAAIDYSDGTTYYADSVKGRFTISRDNAKNTVYLQMNSLKPEDTAGYYCAADFPGQHYDYWGQGTQVTVSS,low polyreactivity
16,QVQLVESGGGLVQAGGSLRLSCAASGSTFWIYAMGWYRQAPGKERELFAAITLRSGSTYYADSVKGRFTISRDNSKNTVYLQMNSLKPEDTAVYYCATDSWGFDSPNYNYWGQCTQVTVSS,low polyreactivity
17,QVQLVESGGGLVQAGGSLRLSCAASGFTFYRYAMGWYRPAPGKERELVAAITRSGSRTYYADSVKGRFTISRDNAKNTVYLQMNSLKPEDTAVYYCNTDGGDHPTARYGYWGQGTQVTVSS,high polyreactivity
18,QVQLVESGGGLVQAAGSLRLSCAASGSTFDNKVMGWYRQAPGKERELVATITWGDGSTSYADSVKGRFTISRDIAKNTVYLELNSRKREDTAVYFCAAGEYYHRIFLWYVYWGQGTKVTVSS,low polyreactivity
19,QVQLVESGGGLVQAGGSLRLSCAASGSIFRRYAMGWYRQAPGKERELVAAISWRGDSTYYADSVKGRFTISRDNAKNTVYLQMNSLIPEDTAVYYCAADYYRAGRYWGQRHGYDYWGQGTQVTVSS,low polyreactivity
20,QVQLVESGGGLVQAGGSLRLSCAASGSSLTYNAMGWYRQAPGKERELVAVISARGGRTYYADSVKGRFTISRDNAKNTVYLQMNSLKPEDTAVYYCAAVFYYSYYRITSGDYWGQGTQVTVSS,high polyreactivity
21,QVQLVESGGGLVQAGGSLRLSCAASGSIFEYNAMGWYRQAPGKERELVAAITRGGNTYYADSVKGRFTISRDNAKNTVYLQMNSLKPEDTAVYYCAAVQWYGYPYYSWGQGTQVIVSS,low polyreactivity
22,QVQLVESGGGLFQAGGSLRLTCAASGSIFTVYSIGLYRQAPGKERELVAGISSGAGTTYADSVKGRFTISRDNAKNTVYLQMNSLIPEVTAVYYCAAYTWDTDHYWYGYVPYDYWGQGTQVTVSS,low polyreactivity

row,Sequence,polyreactivity (PSR sort gate)
1,QVQLVDSGGGLVQAGGILRLSCAASGRTFWIYAMGWYRQAPGKERQLVAAITGSGGSTYYADSVKGRFTISRDNAKNTGYLQMICLKPEDTAVYYCNARVPDCYKWSAYYSHDYWGQGTQVTVSS,low polyreactivity
2,QVKLVESGGGLFQAGGSLRLSCADSGRTFYYYGMPWYIQETGKERELVAAINRGDSTKYADSVKGRFTISLDNAKNNVYLHMNSLKPEDTAVYYCNARLRCSFARFIYEYWRQGTQVTVSS,low polyreactivity
3,QVQLVESGGGLVQAVGSLRLSCAASGSTFNRYALGWYRQAPGKERQLVAAITVRGNTYYADSVKGRFTISRDNAKNTVYLQMNSLKPEDTAVYYCAARIYYLYKDRRLGYYWGQGTQVTVSS,high polyreactivity
4,QVQLVESGGGLVQAGGSLRLSCAASGRTFWTNTMGWYRQAPGNEREFVAAITFGDGSTSYADSVKGRFTISRDNAKNTVYLQMNCLIAEVTAVYYCAKRWRRRFVDVWSLYDYWGQGTQVTVSS,low polyreactivity
5,HVQLVESGGGLVQAGGSLRLSCAASGFTFRLYAMGWYRQAPGKERELVAAINWGGGSTRYADSVKGRFTISRDNAKNTVYLQMNSLKPEDTAVYYCAARRFAYYFQYLGGGYWGQGTQVTVSS,high polyreactivity
6,QVQLVESGGGLVQAGGSLRLSCAASGSIFSNYDMGWYRQAPGKERELVAGITRSGTNTYYADSVKGRFTISRDNAKNTVYLKMNRLKPEDTAVYYCAAAIRPGMDYWGQGTQVTVSS,high polyreactivity
7,QVQLVESAGGLVQAGGSLRLSCAASGRIFGYNAMGWYRQAPGKERELVAVITYSGGSTYYADSVKGRFTISRDNAKNTVYLQMNSLKPEDTAVYYCAKATTWGYFRVWSTRYYYWGQGTQVTVSS,low polyreactivity
8,QDQLVESGGGLVQAGGSLRLSCAASGSNFDRYTMGWYRQAPGKERELLAAITRRGGSTNYADSVKGRFTISRDNAKFTVYLQMISLKPEDTALYYCARATDLNDKPSWDEYWGQGTQVTVSS,high polyreactivity
9,QVQLVESGGGLVQAGGSLRLSCAASGSIIGNYAMGWYREAPGKERELVAAISWSGGSTYYADSVKGRFTISRDNAKNTVYLQMNSLKPEDTAVYYCAAVDYYRYRSDYDYWGQGTQVTVSS,low polyreactivity
10,QFQLVESGGGLVQAGGSLRLSCAASGSIFPPYVMGCYRQAPGKERELVATIDSGGSTYYADSVKGRFTISRDNAKNPVYLQINSLKPEDTAVYYCAARQVSVSVHQYGYWGQGTQVTVST,low polyreactivity
11,QVQLVESGGGLVQAGGSLRLSCAASGRTFGTYAMGWYRQAPGKEREFVAAISRNGGSTYYADSVKGRFTISRDNAKNTVYLQMNSLKPEDTAVYYCATGVLWSAYRYRPNLGYDDWGQGTQVTVSS,low polyreactivity
12,QVQIVESGGGLVQAGGSLRLSCAASGITFSSYAMGWYRQAPGKERELVAAITRTGGRTYYADSVKGRFTISRDNAKNTVYLQMNSLKPEDTAVYYCAAYYIAYYYWGQGTQVTVSS,high polyreactivity
13,QVQLVESGGGLVQAGGSLRLSCGASGFISKFYAMGWYRQAPGKERELVASISRDGSTSYADSVKGRFTMSRDNAKNSVYLQMNSLKPEDTAVYYCAAPSYRTRYYYWGQGTQVTVSS,high polyreactivity
14,QVQLVESGGCLVQAGGSLRLSCAASGSIFPGYAMGWYRQATGKERELVAAISTSGGSTYADSVKGRFTISRDNAKNTVYLQMNSLKPEDTAVYYCAATYTYTSPVYYYLDGPWPYDYWGQGTQVTVSS,low polyreactivity
15,QVQLVESGGGLVQAGGSLRLSCAASGSIFKGYAMGRYIQAPGKERELVAAISSSGGSTYYADSVKGRFTISRDNAKNTVYLQMNSLKPEDTAVYYCNTDRYYTYDYLGQGTQVTVSS,low polyreactivity
16,QVQLVESGGGLVQAGGSLRLSCAASGFTFSYYAMGWYRQAPGKERELVARISFSGTRTYYADSVKGRFTISRDNAKNTVYLQMNSLKQEDTAVYYCAARLGYVGITARYDYWGQGTQVTVSS,high polyreactivity
17,QVQLVESGGGLVQAGGSLRLTCDASGFTFPFYTMGWYRQEPGKERELVAAISASGGRTYYADSVKGRFTISRDNAKNTVYLQMNSLKPEDTGVYYCATYPTPKYFRWRGDYWGQGTQVTVSS,high polyreactivity
18,QVQLVESGGGLVQAGGSLRLSCADSGIIFYVYAMGWYRPAPGKEREWVAAISSGGRTKYADSVKGRFTISRDNAKNTVYLQMNSLKPEDTAVYYCAAKSVRRRLGYWGQGTQVTVSS,high polyreactivity
19,QVQLVESGGGLVQAGGSLRLSCAASGFIFYNYAMGWYRQAPGKVRELVAAISASGGRTYYADSVKGRFTISRDNAKNTVYLQMNRLKPEDTAVYYCNARVNYKGYDYWGQGTQVTVSS,high polyreactivity
20,QVQLVESGGGLVQAVGSLRLSCAASGFILGGYALGWYRQAPGKERELVAAISFSTVATYYADSVKGRFTNSRDNAKNTVYLQMNSLKPEDTAVYYCAARRLGYYRKVKELDYWGQGTQVTVST,high polyreactivity
21,QVQLVESGGGLVQAGGSLRLSCAASGFTFRGNAMGLYRQAPRKERELVATITYNAGSTYYADSVKGRFTISRDNAKNTVYLQMNSLKPEDTAVYYCAVELDSVPDYEPWTEYDYWGQGTQVTVSS,low polyreactivity
